Reference: patent US20240150744A1, “ACYL ACTIVATING ENZYME AND A TRANSGENIC CELL, TISSUE, AND ORGANISM COMPRISING SAME” (YEDA RESEARCH AND DEVELOPMENT CO. LTD., priority 2021, published 2024)

Assay: AAE enzyme assay (acyl-CoA synthetase assay) of purified recombinant HuAAE proteins with an array of substrates
Format: biochemical
Conditions: purified recombinant enzyme from E. coli, UPLC-MS/MS peak area (FIG. 6); for activity towards butyric acid (formation of butyryl CoA): substrate butyric acid
Method: FIG. 6 includes vertical bar graphs showing recombinant enzyme assays of purified H. umbraculigerum acyl activating enzyme (HuAAE) proteins produced in Escherichia coli cells. Peak area is shown. Various alkyl (short-and medium-chain fatty acids) and aromatic (cinnamic and coumaric acids) substrates were used in the enzyme assays.
All AAE genes from H. umbraculigerum were individually cloned into the pET28b vector and expressed in E. coli BL21 (DE3) cells. Bacterial cells were grown in LB medium at 37° C. When cultures reached Absorbance 600=0.6, protein expression was induced with 200 μM of isopropyl-1-thio-β-d-galactopyranoside (IPTG) at 15° C., for 24 h. Bacterial cells were lysed by sonication in 50 mM Tris-HCl pH 7.5, 500 mM NaCl, 1 mM PMSF, 10% glycerol and protease inhibitor cocktail (Sigma Aldrich). An aliquot of whole-cell extract was kept for further analysis. Soluble protein was purified on Ni-NTA agarose beads (Adar Biotech) and eluted with 300 mM imidazole in buffer containing 50 mM NaH2PO4 pH-7.5 and 300 mM NaCl. The whole-cell extract, and the eluted fractions were analyzed by SDS-PAGE stained with InstatBlue.
Acyl-CoA synthetase assays were performed in a 20 μl reaction mix that contained 0.1 μg recombinant AAE, 50 mM HEPES pH 9, 8 mM ATP, 10 mM MgCl2, 0.5 mM CoA and 4 mM sodium hexanoate for 10 min at 40° C. Reactions were terminated with 2 μl of 1 M HCl and stored on ice until analysis. After centrifugation at 15 000 g for 5 min at 4° C., the samples were diluted 1:100 in water and analyzed by UPLC-MS/MS (Stout et al., 2012). injections were performed on a UPLC (Waters) connected to a Triple Quad detector (TQ-S, Waters) in multiple reaction monitoring (MRM) mode. The chromatographic separation was achieved using a similar column as previously described. The mobile phase consisted of an aqueous buffer pH 7.0 (10 mM Ammonium Acetate, 5 mM NH4HCO2, phase A) and acetonitrile (phase B). The flow rate was 0.3 ml min^−1, and the column temperature was kept at 25° C. Compounds were analyzed using a 15 min multistep gradient method: initial conditions were 1% B raised to 35% B until 10.5 min, and then raised to 100% B until 11 min, held at 100% B for 1 min, decreased to 1% B until 12.5 min, and held at 1% B until 15 min for re-equilibration of the system. The instrument was operated in positive mode with a capillary voltage of 3.0 kV, and a cone voltage of 50 V. Metabolite identity was confirmed with authentic standards (Sigma Aldrich). Two different transitions were used for analysis of: acetyl-CoA (810.52>303.30, 27.0V; 810.52>428.25, 24.0V); butyryl-CoA (838.58>331.30, 28.0 V; […]); hexanoyl-CoA (866.65>359.40, 28.0 V; 866.65 >428.25, 26.0 V); octanoyl-CoA (894.65>387.55, 30.0 V; 894.65>428.25, 28.0 V); coumaroyl-CoA (914.59>407.37, 30.0 V; 914.59>428.25, 28.0 V); cinnamoyl-CoA (898.59>391.37, 30.0 V; 898.59>428.25, 28.0 V).
Next, the inventors individually recombinantly expressed six of the eleven AAEs, each in E. coli, purified respective proteins, and examined their activity using array of substrates (acetic acid, butyric acid, hexanoic acid, octanoic acid, cinnamic acid and coumaric acid).

B1: HuAAE2: H. umbraculigerum acyl activating enzyme, recombinantly expressed in E. coli and purified (protein)
chain: MDALRKPNSANSSPLTPIGFLERAAVVFANSPSIVYNNLIYTWSDTFHRCLRLASSISRLAIRKGDVVSVLAPNIPAIYELHFGITMTGAIINTINTRLDARTISILLCHSESKLVFVDYQLTRLIREAVSLMPDACVPPQLVLIVDDGHNLSLLSDQFINTYEAMVETGDPGFNWVRPDSDWDPLTLNYTSGTTSSPKGVVNSHRGSFIVAFDSLLEWHVPKQPIMLWTLPMFHANGWSFVWGMAAVGGTNVCLRKFDATIIYDTIRNHHVTHMCGAPVVLNMLSEGKPLEHTVHIMTAGAPPPAAVLLRTESLGFEVTHGFGMTETGGLVVSCSWKKEWNRLPVTEKARLKARQGVRTLGMTEVDIVDPESGVSVTRDGLTQGELVLRGGSIMLGYLKDPETTNKSVKNGWFYTGDVAVMHPDGYLEIKDRSKDVIISGGENISSVEVESILYQHPAINEAAVVGRPDEFWGESPCAFVSLKDDNGKVAVPTADEIMKFCKGKLPGYMVPKSVVFKKDLPKTSTGKIQKYVLRKLAKDLGFAVKSRI
  activity towards butyric acid (formation of butyryl CoA): efficiently produced butyryl CoA

B2: HuAAE4: H. umbraculigerum acyl activating enzyme, recombinantly expressed in E. coli and purified; great homology to CsAAE1 (protein)
chain: MVYKSLNSISISDIVNLGISPETATQLHQKLTEIIQIYGFDAPQTWTQISTRILHPDLPFCFHQMMYYGCYVDFGPDPPAWSPDPKDAKLTNIGSLLERRGKEFLGPSYKDPISSYSALQEFSALNLEVFWKTILDEMNITFSVPPKRILVDDLSKESQLLHPGGRWLPGAYVNPARNCLSLSSKRRLSDIAVIWRDEGNDDMPVNKMTFQQLRSEVWLVAYALDTLGVEKGSAIAIDMPMDVKSVVIYLAIVLAGYVVVSIADSFAAGEISTRLVLSKAKAIFTQDLIIRGDRSHPLYSRVVDAQSPLAIVIPTRGSSFSIKLRDGDISWHDFLERANTYRNVEFVAVERPVEAFSNILFSSGTTGEPKAIPWTLATPFKAGADAWCHMDVHKGDVVAWPTNLGWMMGPWLIYASLLNGGSLALYNGSPLTSGFAKFVQDAKVTLLGVIPSIVRAWRTNNSTAGFDWSTIRCFGSTGEASNTDECLWLMGRAHYKPVIEYCGGTEIGGGFITGSLLQPQCLSAFSTPSLGCKLLILGEDGIPIPQNAPGIGELALNPLMFGASSTLLNANHYDVYFKGMPSWNGKVLRRHGDVFERTSKGYYRAHGRADDTMNLGGIKVSSVEIERVCNSIDDRILETAAIGVTPSGGGPERLVIVVAFKDGSGSKPDLIKLKVTLNSALQKNLNPLFKVSDVVPFPSLPRTATNKVMRRVLRQQLTQIGQNSKL
  activity towards butyric acid (formation of butyryl CoA): efficiently produced butyryl CoA

B3: HuAAE3: H. umbraculigerum acyl activating enzyme, recombinantly expressed in E. coli and purified (protein)
chain: MTEEEKNKAESMGIKTYAWSDFLHLGSKNPSELQTPKATDICTIMYTSGTSGDPKGVILTHENATTNIRGVDLFMEQFEDKMTVDDVYISFLPLAHILDRMIEEYFFRSGASVGFYHGDINALKEDLAELKPTFLAGVPRVLEKIHEGVLKGLEEVNPRRRKIFSILYNHKLKYMKAGYKHKYASPLADLLAFRKVKNRLGGRIRLMVSGGAPLSTEIEEFMRVTSCAFVAQGYGLTETCGLATLGFPDEMCMIGTVGSPFVYTELRLEEVSDMGYDPLANPPRGEICVKGKTPFAGYYKNPELTNEVMKDGWFHTGDIGEMQPNGVLKIIDRKKHLIKLSQGEYIALEYLEKVYCITPILEDIWVYGDSFKSSLVAVAVPNKENAEKWADQKGLKVSYSELCTLTQFRDYIQSELKSTAERNKLRGFEHIKAIIVEPRTFEGDQELLTATMKKRRNKLLNRYKEGIDNLYKNLAANKR
Substrate acetic acid
  activity against acetic acid (formation of acetyl CoA): great activity

B4: HuAAE6: H. umbraculigerum acyl activating enzyme, recombinantly expressed in E. coli and purified; similar to long-chain acyl-CoA synthetases (protein)
chain: MSVYTVKVEDSRAASGETPSAGPVYRCIYAKDALMELPPGYESPWDFFSESVKRNPKNPALGRRQVIDGKAGGYSWLSYQEAYNSALRIASAIRSRSVNPGDRCGIYGPNCPEWIISMEACNSNGITYVPLYDTLGANAVEYIINHAEISLVFVQENKLSAILSCLPNCSSNLKTIVSFGKFSESQKNEAMEHGVDCFSWEEFSSMGNLEDELPAKNKTDICTIMYTSGTTGEPKGVVLSNRAFMSEVLSMHELLIETDKPGTEEDTYFSFLPLAHIFDQIMETYFIYSGASIGFWQGDIRYLIEDLLVLQPTIFCGVPRVYDRIYTGIMAKISTGGAIRKALFDFAYNYKLRNLEKGIQQDKSAPLLDKLVFDKIKQGFGGRVRLMLSGAAPLPKHVEEFLRVTCCTVLSQGYGLTESCGGCFTSIANVYSMIGTVGVPMTTIEARLESVPEMGYDALSSVPCGEICLRGNTLFSGYHKRDDLTDAVLVDGWFHTGDIGEWQADGAMKIIDRKKNIFKLSQGEYVAVESIESTYSRCPLVTSIWVYGNSFESFLVAVVVPDRVAVEEFAAKNNESGDYASLCKNPNVRKYVLEELNAEAQCNKLRGFEMLKAVHLDPVPFDFERDLITPTFKLKRQQLLKYYKDCVEQLYAEAKTSKK
Substrate cinnamic acid
  activity towards cinnamic acid (formation of cinnamoyl CoA): reacted
Substrate coumaric acid
  activity towards coumaric acid (formation of coumaroyl CoA): reacted
Substrate hexanoic acid
  activity towards hexanoic acid: very high activity
Substrate octanoic acid
  activity towards octanoic acid: very high activity
